Residue numbers refer to the chain shown, from its start. Numbers in names are those of the source.

The values below come from patent US20240383984A1 (Genentech, published 2024).

The target in test [1] is T1, human FcRH5 protein fragment (soluble) (human, UniProt Q96RD9 16-851).
T1 construct: whole entry named; also called soluble human FcRH5; Human FcRH5 (BIACORE analyte)
T1 sequence: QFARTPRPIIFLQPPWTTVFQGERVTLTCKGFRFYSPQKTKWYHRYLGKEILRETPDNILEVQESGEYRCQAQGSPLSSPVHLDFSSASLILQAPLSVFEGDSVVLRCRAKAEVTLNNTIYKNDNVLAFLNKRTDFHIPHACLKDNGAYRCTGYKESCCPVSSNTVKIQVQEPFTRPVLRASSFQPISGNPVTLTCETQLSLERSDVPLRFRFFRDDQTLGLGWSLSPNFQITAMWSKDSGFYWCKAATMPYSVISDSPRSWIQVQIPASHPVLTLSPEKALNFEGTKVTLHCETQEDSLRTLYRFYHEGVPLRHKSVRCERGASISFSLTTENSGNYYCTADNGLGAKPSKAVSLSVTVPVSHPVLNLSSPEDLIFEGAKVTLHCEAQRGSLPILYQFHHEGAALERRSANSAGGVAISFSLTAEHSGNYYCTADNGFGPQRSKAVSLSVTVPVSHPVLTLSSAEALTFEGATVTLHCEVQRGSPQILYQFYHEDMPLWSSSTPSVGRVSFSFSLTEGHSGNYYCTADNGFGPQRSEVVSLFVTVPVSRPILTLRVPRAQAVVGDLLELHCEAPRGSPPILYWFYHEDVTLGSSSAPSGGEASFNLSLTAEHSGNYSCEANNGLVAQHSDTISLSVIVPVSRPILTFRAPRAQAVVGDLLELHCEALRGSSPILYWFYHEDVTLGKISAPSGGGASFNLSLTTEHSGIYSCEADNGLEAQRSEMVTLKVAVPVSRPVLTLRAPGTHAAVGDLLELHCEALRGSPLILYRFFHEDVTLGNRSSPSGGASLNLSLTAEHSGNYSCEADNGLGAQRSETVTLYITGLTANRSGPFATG
Briefly: BIACORE, human IgG1, soluble human FcRH5.

Test [2] concerns the target T1, human FcRH5 protein fragment (soluble). The test can be described thus: SPR, hIgG capture, screening. How it is done:
(§1) Briefly, a human IgG capture surface was generated on a Series S CM5 chip using amine coupling and the human IgG capture kit (GE Life Sciences, Piscataway, NJ). Test antibodies were then captured on flow cells 2, 3, or 4, with flow cell 1 used as a reference. An FcRH5 protein fragment was used as the analyte, with a flow rate of […]. Between injections the capture surface was regenerated by a 30-second injection of 3M magnesium chloride or 10 mM glycine, pH 1.5. Interactions were assessed at 25° C. in 10 mM HEPES pH7.4, 150 mM NaCl, and 0.05% Tween 20 (HBSP). Reference data from the reference flow cell and from injection of buffer alone were subtracted prior to kinetic analysis. Kinetic information was calculated by fitting data to a 1:1 binding model. Reference subtraction and data fitting were performed using BIAevaluation software (GE Life Sciences, Piscataway, NJ).
(§2) For affinity screening of HVR-H2 Trp52 and Met64 variants (Table 7), antibodies were expressed by transient transfection of Expi293 cells and purified using tip columns that were custom packed with affinity resin MabSelect SuRe (Glygen Corp., Columbia, MD & GE Life Sciences, Piscataway, NJ). […] Binding of FcRH5 protein fragment to captured antibodies was monitored at 100 nM and 500 nM. Association and dissociation were monitored at a flow rate of 40 μl/min, for 180 s and 300 s, respectively.
(SPR reads the build-up and loss of mass on a sensor chip optically.)

For test [3] the target is unchanged. The test can be described thus: SPR (BIACORE), IgG captured via anti-human IgG, FcRH5 protein fragment as analyte (100 and 500 nM). How it is done:
as §1, §2

B1: 1G7.v1C (antibody, human IgG1, V domains shown)
VH: EVQLVESGPGLVKPSETLSLTCTVSGFPLTRFGVHWVRQPPGKGLEWLGVIWRGGSTDYNAAFMSRLTISKDNSKNQVSLKLSSVTAADTAVYYCSNHYYGSSDYALDNWGQGTLVTVSS
VL: DIQMTQSPSSLSASVGDRVTITCKASQDVSNIVVWFQQKPGKSPKLLIYSASYRYTGVPSRFSGSGSGTDFTLTISSLQPEDFATYYCQQHYSSPYTFGQGTKVEIK
notes: human IgG1 with the light chain of hu1G7.v1; also called C (hu1G7.v1 heavy chain S28P)
Usually Kd stands for the equilibrium constant for the complex coming apart. Read a low Kd as tighter binding. Turning to B1, in test [1], the “Fold improvement over hu1G7.v1” value is 1.1 fold and the equilibrium dissociation constant (Kd) was found to be 13.3 nM.

B2: hu1G7.v1 heavy chain W52L with light chain of hu1G7.v1.3 (antibody, V domains shown)
VH: B1 VH with P28S, W52L
VL: B1 VL with S30R, S43A, A51G, T56S, H91Q, S94P
notes: human IgG
With B2, the Kd in test [2] turned out to be 240 nM; in test [3] it was 239 nM.

B3: hu1G7.v1 heavy chain W52Y with light chain of hu1G7.v1.7 (antibody, V domains shown)
VH: B1 VH with P28S, W52Y
VL: B1 VL with S30R, I32L, S43A, A51G, S52Y, S93Q, S94P
notes: human IgG
Take B3: the Kd in test [2] came out at 140 nM; in test [3], 136 nM.

B4: hu1G7.v1 heavy chain W52L with light chain of hu1G7.v1 (antibody, V domains shown)
VH: B1 VH with P28S, W52L
VL: B1 VL
notes: human IgG
For B4, the Kd came out at 100 nM in test [2] and 103 nM in test [3].

B5: hu1G7.v1 heavy chain W52H with light chain of hu1G7.v1.7 (antibody, V domains shown)
VH: B1 VH with P28S, W52H
VL: B1 VL with S30R, I32L, S43A, A51G, S52Y, S93Q, S94P
notes: human IgG
For the molecule B5, the results for the equilibrium dissociation constant (Kd) in test [2] and in test [3] were 90 nM and 89.8 nM, respectively.

B6: hu1G7.v1 heavy chain W52H with light chain of hu1G7.v1.4 (antibody, V domains shown)
VH: B1 VH with P28S, W52H
VL: B1 VL with S30R, I32L, S43A, A51G, T56S, S94P
notes: human IgG
For B6, the Kd in test [2] came out at 60 nM; in test [3], 60.4 nM.

B7: 1G7.v1H (antibody, human IgG1, V domains shown)
VH: B1 VH with P28S, S65D
VL: B1 VL
notes: human IgG1 with the light chain of hu1G7.v1; also called H (hu1G7.v1 heavy chain S65D)
In the case of B7, in test [1], the “Fold improvement over hu1G7.v1” value came out at 1 fold and binding was characterised by a dissociation constant (Kd) of 15 nM.

B8: hu1G7.v1 heavy chain W52L with light chain of hu1G7.v1.5 (antibody, V domains shown)
VH: B1 VH with P28S, W52L
VL: B1 VL with A51G, S52Y, H91Q, Y92F, S93Q, S94P
notes: human IgG
As to B8, the results for the Kd in test [2] and in test [3] were 130 nM and 125 nM, respectively.

B9: hu1G7.v1 heavy chain W52Y with light chain of hu1G7.v1.6 (antibody, V domains shown)
VH: B1 VH with P28S, W52Y
VL: B1 VL with S43A, A51G, S52Y, T56S, H91Q, S93Q, S94P
notes: human IgG
Consider B9, for which the Kd in test [2] amounted to 530 nM; in test [3], 529 nM.

B10: hu1G7.v1 heavy chain W52Y with light chain of hu1G7.v1.3 (antibody, V domains shown)
VH: B1 VH with P28S, W52Y
VL: B1 VL with S30R, S43A, A51G, T56S, H91Q, S94P
notes: human IgG
B10: the Kd in test [2] was found to be 640 nM; in test [3] it was 641 nM.

B11: 1G7.v1L (antibody, human IgG1, V domains shown)
VH: B1 VH with P28S, S103P
VL: B1 VL
notes: human IgG1 with the light chain of hu1G7.v1; also called L (hu1G7.v1 heavy chain S100P)
Turning to B11, in test [1], the “Fold improvement over hu1G7.v1” value is 3 fold and the Kd came out at 4.8 nM.

B12: 1G7.v1J (antibody, human IgG1, V domains shown)
VH: B1 VH with P28S, K81M
VL: B1 VL
notes: human IgG1 with the light chain of hu1G7.v1; also called J (hu1G7.v1 heavy chain K81M)
For B12, in test [1], the “Fold improvement over hu1G7.v1” value was found to be 1 fold and the affinity, expressed as Kd, was 15.3 nM.

B13: 1G7.v1E (antibody, human IgG1, V domains shown)
VH: B1 VH with P28S, V37Y
VL: B1 VL
notes: human IgG1 with the light chain of hu1G7.v1; also called E (hu1G7.v1 heavy chain V37Y)
For B13, in test [1], the “Fold improvement over hu1G7.v1” value was 1.3 fold and binding was put at a Kd of 11 nM.

B14: 1G7.v1K (antibody, human IgG1, V domains shown)
VH: B1 VH with P28S, S84D
VL: B1 VL
notes: human IgG1 with the light chain of hu1G7.v1; also called K (hu1G7.v1 heavy chain S82bD)
Turning to B14, in test [1], the “Fold improvement over hu1G7.v1” value came to 1 fold and binding was put at a Kd of 15 nM.

B15: hu1G7.v1 heavy chain W52H with light chain of hu1G7.v1.6 (antibody, V domains shown)
VH: B1 VH with P28S, W52H
VL: B1 VL with S43A, A51G, S52Y, T56S, H91Q, S93Q, S94P
notes: human IgG
For the molecule B15, the Kd in test [2] is 110 nM; in test [3] it was 109 nM.

B16: hu1G7.v1 heavy chain W52L with light chain of hu1G7.v1.6 (antibody, V domains shown)
VH: B1 VH with P28S, W52L
VL: B1 VL with S43A, A51G, S52Y, T56S, H91Q, S93Q, S94P
notes: human IgG
As for B16, the Kd in test [2] and in test [3] was 250 nM in each case.

B17: hu1G7.v86 (antibody, human IgG1, V domains shown)
VH: B1 VH with P28S, M64V
VL: B1 VL with I32L, A51G, T56S, S94P
notes: human IgG1
As for B17, in test [1], the “Fold improvement over hu1G7.v1” value came to 10.3 fold and the Kd is 1.4 nM.

B18: hu1G7.v1 heavy chain W52H with light chain of hu1G7.v1.5 (antibody, V domains shown)
VH: B1 VH with P28S, W52H
VL: B1 VL with A51G, S52Y, H91Q, Y92F, S93Q, S94P
notes: human IgG
For B18, the results for the Kd in test [2] and in test [3] were 67 nM and 67.3 nM, respectively.

B19: hu1G7.v1 heavy chain W52L with light chain of hu1G7.v1.4 (antibody, V domains shown)
VH: B1 VH with P28S, W52L
VL: B1 VL with S30R, I32L, S43A, A51G, T56S, S94P
notes: human IgG
As for B19, the Kd in test [2] and in test [3] was 92 nM throughout.

B20: hu1G7.v1 heavy chain W52Y with light chain of hu1G7.v1.5 (antibody, V domains shown)
VH: B1 VH with P28S, W52Y
VL: B1 VL with A51G, S52Y, H91Q, Y92F, S93Q, S94P
notes: human IgG
For B20, the figures for the Kd in test [2] and in test [3] were 180 nM and 177 nM, respectively.

B21: 1G7.v1D (antibody, human IgG1, V domains shown)
VH: B1 VH with P28S, L29T
VL: B1 VL
notes: human IgG1 with the light chain of hu1G7.v1; also called D (hu1G7.v1 heavy chain L29T)
Consider B21, for which, in test [1], the “Fold improvement over hu1G7.v1” value was found to be 2.2 fold and the Kd came out at 6.7 nM.

B22: 1G7.v1G (antibody, human IgG1, V domains shown)
VH: B1 VH with P28S, M64G
VL: B1 VL
notes: human IgG1 with the light chain of hu1G7.v1; also called G (hu1G7.v1 heavy chain M64G)
Consider B22, for which, in test [1], the “Fold improvement over hu1G7.v1” value was 1 fold and the Kd was 14.4 nM.

B23: 1G7.v1I (antibody, human IgG1, V domains shown)
VH: B1 VH with P28S, S65P
VL: B1 VL
notes: human IgG1 with the light chain of hu1G7.v1; also called I (hu1G7.v1 heavy chain S65P)
As for B23, in test [1], the “Fold improvement over hu1G7.v1” value was found to be 0.9 fold and the affinity, expressed as Kd, was 16.2 nM.

B24: hu1G7.v87 (antibody, V domains shown)
VH: B1 VH with P28S, M64V
VL: B1 VL
notes: Human IgG
With B24, the Kd is 27 nM in test [2] and 27.4 nM in test [3].

B25: hu1G7.v1 heavy chain W52Y with light chain of hu1G7.v1.4 (antibody, V domains shown)
VH: B1 VH with P28S, W52Y
VL: B1 VL with S30R, I32L, S43A, A51G, T56S, S94P
notes: human IgG
Consider B25, for which the Kd in test [2] turned out to be 130 nM; in test [3], 131 nM.

B26: hu1G7.v1 heavy chain W52L with light chain of hu1G7.v1.7 (antibody, V domains shown)
VH: B1 VH with P28S, W52L
VL: B1 VL with S30R, I32L, S43A, A51G, S52Y, S93Q, S94P
notes: human IgG
As to B26, the Kd in test [2] came out at 130 nM; in test [3] it was 129 nM.

B27: 1G7.v1F (antibody, human IgG1, V domains shown)
VH: B1 VH with P28S, A61P
VL: B1 VL
notes: human IgG1 with the light chain of hu1G7.v1; also called F (hu1G7.v1 heavy chain A61P)
B27: in test [1], the “Fold improvement over hu1G7.v1” value worked out at 1.2 fold and the Kd turned out to be 11.7 nM.

B28: hu1G7.v1 heavy chain W52Y with light chain of hu1G7.v1 (antibody, V domains shown)
VH: B1 VH with P28S, W52Y
VL: B1 VL
notes: human IgG
Consider B28, for which the values for the Kd in test [2] and in test [3] were 150 nM and 146 nM, respectively.
